The record followed here is patent publication US20180155451A1 (published 2018).

Assay [1] addresses T1, FcγRIIb, extracellular domain with C-terminal His tag (human, UniProt P31994 43-217).
T1 construct: extracellular domain; also called 2b; FcgRIIb; not shown: His tag at the C terminus
T1 sequence (looked up): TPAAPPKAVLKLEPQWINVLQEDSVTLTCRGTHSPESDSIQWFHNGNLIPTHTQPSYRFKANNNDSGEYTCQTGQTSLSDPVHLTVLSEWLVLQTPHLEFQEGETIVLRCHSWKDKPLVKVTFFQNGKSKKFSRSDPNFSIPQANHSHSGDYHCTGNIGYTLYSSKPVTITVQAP
Put plainly: SPR (Biacore), antibody captured on antigen-peptide chip, FcγR as analyte; GpH7-A5/GpH7-B3/GpL16-k0 = 100. On the procedure:
(§1) The heterodimerized antibodies He Abs in which one of the H chains was introduced with an alteration were assayed for their binding activities to each activating FcγR and inhibitory FcγR according to the method described in Example 4. […] The activating FcγRs in FIGS. 26, 27, 28, and 29 are FcγRIa, FcγRIIa (R), FcγRIIa (H), and FcγRIIIa, respectively.
(§2) Analysis of interaction between objective antibody and the FcγR was carried out using Biacore T100 (GE Healthcare). HBS-EP+ (GE Healthcare) was used as the running buffer, and the measurement temperature was set to 25° C. Chips produced by immobilizing the antigen peptide by the amine coupling method to a Series S Sencor Chip CM5 (GE Healthcare), or alternatively, chips produced by allowing preliminarily biotinylated antigen peptides to interact with and immobilize onto a Series S Sensor Chip SA (certified) (GE Healthcare) were used. Antibodies of interest were captured onto an antigen peptide-immobilized chip, and allowed to interact to each FcγR diluted with running buffer. To regenerate and repeatedly use the chip, the antibodies captured on the chip were washed off by reacting 10 mM glycine-HCl, pH 1.5.
For orientation: SPR reads the build-up and loss of mass on a sensor chip optically.

In assay [2] the target is T2, FcγRIIa H (FcγRIIa type H, His at position 131), extracellular domain with C-terminal His tag (human, UniProt P12318 34-217).
T2 construct: extracellular domain; also called 2aH; FcgRIIa H; not shown: His tag at the C terminus
T2 sequence (looked up): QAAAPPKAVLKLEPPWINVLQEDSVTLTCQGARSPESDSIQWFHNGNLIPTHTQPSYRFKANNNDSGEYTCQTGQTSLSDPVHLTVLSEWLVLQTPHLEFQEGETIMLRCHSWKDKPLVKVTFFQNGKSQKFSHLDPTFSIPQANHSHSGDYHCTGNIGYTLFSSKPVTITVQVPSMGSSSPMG
The description is as above. As to the method:
as §1, §2

The target in assay [3] is T3, FcγRIIb extracellular domain with C-terminal His tag (human, UniProt P31994 43-217).
T3 construct: extracellular domain; also called FcgRIIb; 2b; not shown: His tag at the C terminus
T3 sequence (looked up): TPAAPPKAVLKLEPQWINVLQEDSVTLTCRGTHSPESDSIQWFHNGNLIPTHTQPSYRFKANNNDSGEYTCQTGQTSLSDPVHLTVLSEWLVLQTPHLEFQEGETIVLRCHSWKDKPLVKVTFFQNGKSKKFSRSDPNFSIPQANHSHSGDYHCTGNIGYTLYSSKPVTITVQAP
Kind of assay: SPR (Biacore), antibody captured on antigen peptide chip, FcγR as analyte; relative binding amount. On the procedure: as §2
(§3) The FcγR-binding activity of each antibody was assessed primarily using as an indicator the FcγR-binding activity and dissociation constant for FcγR.

Assay [4] addresses T4, FcγRIIIa extracellular domain with C-terminal His tag (human, UniProt P08637 17-208).
T4 construct: extracellular domain; also called FcgRIIIa; 3a; not shown: His tag at the C terminus
Described as above. As to the method:
as §2, §3

T4 sequence (P08637 17-208): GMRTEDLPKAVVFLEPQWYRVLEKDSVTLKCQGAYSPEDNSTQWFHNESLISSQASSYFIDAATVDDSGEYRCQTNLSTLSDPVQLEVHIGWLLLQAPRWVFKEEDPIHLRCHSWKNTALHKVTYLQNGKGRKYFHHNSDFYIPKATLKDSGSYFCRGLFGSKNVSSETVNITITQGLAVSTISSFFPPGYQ

B1: GpH7-A5/GpH7-B3 variant Y300_19Q/GpL16-k0 (antibody, human IgG1, kappa)
heavy 1: not shown
heavy 2: not shown
light: DIVMTQSPLSLPVTPGEPASISCQASESLVHSNRNTYLHWYLQKPGQSPQLLIYKVSNRFSGVPDRFSGSGSGTDFTLKISRVEAEDVGVYYCSQNTHVPPTFGQGTKVEIERTVAAPSVFIFPPSDEQLKSGTASVVCLLNNFYPREAKVQWKVDNALQSGNSQESVTEQDSKDSTYSLSSTLTLSKADYEKHKVYACEVTHQGLSSPVTKSFNRGEC
notes: Heterodimerized IgG1 (He Ab); mutation only in the GpH7-B3 chain; also called He Ab Y300Q
Turning to B1, the “He/Con_2b (relative binding activity)” value in assay [1] was 108 % of control. Moreover, in assay [2], the “He/Con_2aH (relative binding activity)” value is 96.1 % of control.

B2: GpH7-A5/GpH7-B3 variant A327_01G/GpL16-k0 (antibody, human IgG1, kappa)
heavy 1: not shown
heavy 2: not shown
light: DIVMTQSPLSLPVTPGEPASISCQASESLVHSNRNTYLHWYLQKPGQSPQLLIYKVSNRFSGVPDRFSGSGSGTDFTLKISRVEAEDVGVYYCSQNTHVPPTFGQGTKVEIERTVAAPSVFIFPPSDEQLKSGTASVVCLLNNFYPREAKVQWKVDNALQSGNSQESVTEQDSKDSTYSLSSTLTLSKADYEKHKVYACEVTHQGLSSPVTKSFNRGEC
notes: Heterodimerized anti-glypican-3 IgG1; the substitution stands in the GpH7-B3 chain only; also called He Ab
As to B2, the He/Con_2b in assay [3] is 116 % of GpH7-A5/GpH7-B3/GpL16-k0 (=100). In addition, in assay [4], the He/Con_3a is 72.4 % of GpH7-A5/GpH7-B3/GpL16-k0 (=100).

B3: GpH7-A5/GpH7-B3 variant H268_05P/GpL16-k0 (antibody, human IgG1, kappa)
heavy 1: not shown
heavy 2: not shown
light: DIVMTQSPLSLPVTPGEPASISCQASESLVHSNRNTYLHWYLQKPGQSPQLLIYKVSNRFSGVPDRFSGSGSGTDFTLKISRVEAEDVGVYYCSQNTHVPPTFGQGTKVEIERTVAAPSVFIFPPSDEQLKSGTASVVCLLNNFYPREAKVQWKVDNALQSGNSQESVTEQDSKDSTYSLSSTLTLSKADYEKHKVYACEVTHQGLSSPVTKSFNRGEC
notes: as for B2
For B3, the He/Con_2b in assay [3] was 116 % of GpH7-A5/GpH7-B3/GpL16-k0 (=100). Further, the He/Con_3a in assay [4] was 76.4 % of GpH7-A5/GpH7-B3/GpL16-k0 (=100).

B4: GpH7-A5/GpH7-B3 variant H268_20W/GpL16-k0 (antibody, human IgG1, kappa)
heavy 1: not shown
heavy 2: not shown
light: DIVMTQSPLSLPVTPGEPASISCQASESLVHSNRNTYLHWYLQKPGQSPQLLIYKVSNRFSGVPDRFSGSGSGTDFTLKISRVEAEDVGVYYCSQNTHVPPTFGQGTKVEIERTVAAPSVFIFPPSDEQLKSGTASVVCLLNNFYPREAKVQWKVDNALQSGNSQESVTEQDSKDSTYSLSSTLTLSKADYEKHKVYACEVTHQGLSSPVTKSFNRGEC
notes: as for B2
Take B4: in assay [3], the He/Con_2b is 111 % of GpH7-A5/GpH7-B3/GpL16-k0 (=100). Besides, in assay [4], the He/Con_3a is 82.8 % of GpH7-A5/GpH7-B3/GpL16-k0 (=100).

B5: GpH7-A5/GpH7-B3 variant S267_19Q/GpL16-k0 (antibody, human IgG1, kappa)
heavy 1: not shown
heavy 2: not shown
light: DIVMTQSPLSLPVTPGEPASISCQASESLVHSNRNTYLHWYLQKPGQSPQLLIYKVSNRFSGVPDRFSGSGSGTDFTLKISRVEAEDVGVYYCSQNTHVPPTFGQGTKVEIERTVAAPSVFIFPPSDEQLKSGTASVVCLLNNFYPREAKVQWKVDNALQSGNSQESVTEQDSKDSTYSLSSTLTLSKADYEKHKVYACEVTHQGLSSPVTKSFNRGEC
notes: as for B2
On to B5, for which the He/Con_2b in assay [3] is 218 % of GpH7-A5/GpH7-B3/GpL16-k0 (=100). Also, in assay [4], the He/Con_3a is 65 % of GpH7-A5/GpH7-B3/GpL16-k0 (=100).

B6: GpH7-A5/GpH7-B3 variant N325_01G/GpL16-k0 (antibody, human IgG1, kappa)
heavy 1: not shown
heavy 2: not shown
light: DIVMTQSPLSLPVTPGEPASISCQASESLVHSNRNTYLHWYLQKPGQSPQLLIYKVSNRFSGVPDRFSGSGSGTDFTLKISRVEAEDVGVYYCSQNTHVPPTFGQGTKVEIERTVAAPSVFIFPPSDEQLKSGTASVVCLLNNFYPREAKVQWKVDNALQSGNSQESVTEQDSKDSTYSLSSTLTLSKADYEKHKVYACEVTHQGLSSPVTKSFNRGEC
notes: as for B2
For B6, the He/Con_2b in assay [3] is 101 % of GpH7-A5/GpH7-B3/GpL16-k0 (=100). Also, in assay [4], the He/Con_3a was 28 % of GpH7-A5/GpH7-B3/GpL16-k0 (=100).

B7: GpH7-A5/GpH7-B3 variant P271_08L/GpL16-k0 (antibody, human IgG1, kappa)
heavy 1: not shown
heavy 2: not shown
light: DIVMTQSPLSLPVTPGEPASISCQASESLVHSNRNTYLHWYLQKPGQSPQLLIYKVSNRFSGVPDRFSGSGSGTDFTLKISRVEAEDVGVYYCSQNTHVPPTFGQGTKVEIERTVAAPSVFIFPPSDEQLKSGTASVVCLLNNFYPREAKVQWKVDNALQSGNSQESVTEQDSKDSTYSLSSTLTLSKADYEKHKVYACEVTHQGLSSPVTKSFNRGEC
notes: as for B2
On to B7, for which the He/Con_2b in assay [3] is 103 % of GpH7-A5/GpH7-B3/GpL16-k0 (=100). In addition, the He/Con_3a in assay [4] is 71 % of GpH7-A5/GpH7-B3/GpL16-k0 (=100).
